Measurements from PMC5869396.

Molecular target: recombinant Shiga toxin-2a B subunit (rStx2aB), C-terminal 6xHis tag (E. coli O157:H7 strain EDL933)
Experiment: SEC; rStx2aB on Superdex-75 16/60 in PBS, 1 mL/min

## recombinant Shiga toxin-2a B subunit (rStx2aB), C-terminal 6xHis tag (domain or fragment)
  stoichiometry N: 5
